{"source": "patent US20050209148A1", "about": "(RINAT NEUROSCIENCE, published 2005)", "binders": {"B1": {"name": "human NT-4/5 (mature human neurotrophin-4/5) (ligand)", "chain": "GVSETAPASRRGELAVCDAVSGWVTDRRTAVDLRGREVEVLGEVPAAGGSPLRQYFFETRCKADNAEEGGPGAGGGGCRGVDRRHWVSECKAKQSYVRALTADAQGRVGWRWIRIDTACVCTLLSRTGRA"}, "B2": {"name": "1PEG-NT4-G1S (ligand)", "chain 1": "B1 chain with G1S", "chain 2": "B1 chain with G1S", "modifications": "no PEG; N-terminal serine (position 1) treated with periodate (oxidized to an aldehyde); N-terminal serine (position 1) oxidized to an aldehyde and linked to 20K-m-PEG-HZ (methoxy polyethylene glycol hydrazide, 20 kDa)"}, "B3": {"name": "2PEG-NT4-G1S (ligand)", "chain": "B1 chain with G1S", "modifications": "N-terminal serine (position 1) oxidized to an aldehyde and linked to 20K-m-PEG-HZ (methoxy polyethylene glycol hydrazide, 20 kDa)"}}, "key": {"[1]": {"target": "T1, human TrkB expressed on a stable cell line (human, UniProt Q16620 32-822)", "T1 sequence (Q16620 32-822)": "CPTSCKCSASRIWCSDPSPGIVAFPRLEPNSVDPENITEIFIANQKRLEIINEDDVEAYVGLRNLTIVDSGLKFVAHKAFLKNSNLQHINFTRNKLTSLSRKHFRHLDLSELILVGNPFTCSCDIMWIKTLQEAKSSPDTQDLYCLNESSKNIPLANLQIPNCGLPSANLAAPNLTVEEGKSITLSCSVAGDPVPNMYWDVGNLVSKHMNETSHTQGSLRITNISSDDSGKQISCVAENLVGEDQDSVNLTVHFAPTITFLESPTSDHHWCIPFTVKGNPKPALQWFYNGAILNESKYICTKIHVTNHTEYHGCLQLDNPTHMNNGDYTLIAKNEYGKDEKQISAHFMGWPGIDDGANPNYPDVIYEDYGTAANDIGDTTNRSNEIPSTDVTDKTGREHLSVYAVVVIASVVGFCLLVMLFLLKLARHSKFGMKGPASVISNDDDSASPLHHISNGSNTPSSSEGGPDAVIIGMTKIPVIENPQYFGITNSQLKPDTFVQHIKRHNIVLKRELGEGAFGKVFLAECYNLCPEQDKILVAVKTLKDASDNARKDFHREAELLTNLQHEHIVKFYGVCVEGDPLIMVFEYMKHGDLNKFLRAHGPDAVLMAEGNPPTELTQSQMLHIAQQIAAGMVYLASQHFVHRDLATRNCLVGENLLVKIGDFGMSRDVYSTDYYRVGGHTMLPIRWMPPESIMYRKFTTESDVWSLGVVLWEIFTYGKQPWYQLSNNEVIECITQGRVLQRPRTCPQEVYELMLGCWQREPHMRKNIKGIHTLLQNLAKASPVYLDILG", "experiment": "cell-based or functional assay"}, "[2]": {"target": "T1, human TrkB expressed on a stable cell …", "experiment": "cell-based or functional assay", "remark": "listed apart in the source"}}, "note": "Positions count from the first letter of the chain named. Like-named read-outs stand apart in the source and are kept apart here."}
{"binder": "B1", "values": [{"measurement": "EC50 (read off the curve), receptor tyrosine phosphorylation in trkB expressing cell line", "setting": "[1]", "result": "~0.2", "unit": "nM"}, {"measurement": "EC50 (read off the curve), receptor tyrosine phosphorylation in trkB expressing cell line", "setting": "[2]", "result": "~0.7", "unit": "nM"}]}
{"binder": "B2", "values": [{"measurement": "EC50 (read off the curve), receptor tyrosine phosphorylation in trkB expressing cell line", "setting": "[2]", "result": "~1", "unit": "nM"}]}
{"binder": "B3", "values": [{"measurement": "EC50 (read off the curve), receptor tyrosine phosphorylation in trkB expressing cell line", "setting": "[2]", "result": "~1", "unit": "nM"}]}
